Legend:
[1] = target: c-Met recombinant chimera (R&D Systems) (UniProt P08581); test: SPR; c-Met chimera amine-coupled to a CM5 chip (200-1000 RU), Biacore 2000, 25 °C, HBS-EP pH 7.4, 5 uL/min; CSF diluted 1:1 in PBS flowed over; samples: septic community-acquired meningitis (n = 22)
[2] = target: c-Met recombinant chimera (R&D Systems) (UniProt P08581); test: SPR; c-Met chimera amine-coupled to a CM5 chip (200-1000 RU), Biacore 2000, 25 °C, HBS-EP pH 7.4, 5 uL/min; CSF diluted 1:1 in PBS flowed over; samples: septic nosocomial meningitis (n = 33)

UniProt P08581, sequence (P08581 25-932, change not shown): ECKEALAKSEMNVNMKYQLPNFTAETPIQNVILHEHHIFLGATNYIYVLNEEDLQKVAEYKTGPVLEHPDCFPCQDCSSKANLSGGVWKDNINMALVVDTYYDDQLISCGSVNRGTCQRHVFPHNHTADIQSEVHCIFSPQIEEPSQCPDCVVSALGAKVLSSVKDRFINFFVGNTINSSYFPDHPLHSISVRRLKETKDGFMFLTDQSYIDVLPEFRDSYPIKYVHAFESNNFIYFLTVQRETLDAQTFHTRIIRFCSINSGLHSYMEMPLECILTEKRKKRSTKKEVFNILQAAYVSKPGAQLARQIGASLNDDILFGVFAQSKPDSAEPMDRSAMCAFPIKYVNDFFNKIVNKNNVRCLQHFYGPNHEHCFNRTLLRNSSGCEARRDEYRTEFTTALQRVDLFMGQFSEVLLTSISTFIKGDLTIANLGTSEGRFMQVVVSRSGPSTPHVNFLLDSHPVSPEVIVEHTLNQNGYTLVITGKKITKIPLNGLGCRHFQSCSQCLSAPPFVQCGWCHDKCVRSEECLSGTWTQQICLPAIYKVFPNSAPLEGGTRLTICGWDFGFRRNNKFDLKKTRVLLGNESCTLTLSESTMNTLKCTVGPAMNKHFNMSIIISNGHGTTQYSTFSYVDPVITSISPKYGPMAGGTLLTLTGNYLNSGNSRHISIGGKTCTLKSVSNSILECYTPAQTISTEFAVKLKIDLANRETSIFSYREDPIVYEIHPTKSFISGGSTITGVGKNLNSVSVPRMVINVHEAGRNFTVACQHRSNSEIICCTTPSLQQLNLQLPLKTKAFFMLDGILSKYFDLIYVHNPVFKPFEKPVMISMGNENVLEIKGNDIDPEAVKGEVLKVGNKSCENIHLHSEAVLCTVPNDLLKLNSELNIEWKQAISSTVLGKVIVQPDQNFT

“Hepatocyte growth factor (CSF-derived) (ligand)” was tested, and the C-Met binding (RU), median of the group [1] was 56 RU and the C-Met binding (RU), median of the group [2] was 27.3 RU.
